These results are taken from PMC4621360 (eLife, 2015).

The target in the assay is T1, FG-N, MGT-Nsp1(48–172)-… (S. cerevisiae).
T1 construct: added N-terminal residues; Nsp1, FG nucleoporin, N-terminal Asn-rich segment of low charge with irregularly spaced FG repeats, residues 48-172; Isotope-labelled for NMR; source: E. coli BL21DE3 Gold, purified (8 M urea throughout, Talon resin); also observed inside living E. coli
Put plainly: NMR titration; HSQC test of reversibility in buffer A; FG-N 50 μM, Kap95 added to 25 μM, then diluted with more FG-N. Conditions: both partners purified.

B1: Kap95 (natural protein, S. cerevisiae)
chain: MSTAEFAQLLENSILSPDQNIRLTSETQLKKLSNDNFLQFAGLSSQVLIDENTKLEGRILAALTLKNELVSKDSVKTQQFAQRWITQVSPEAKNQIKTNALTALVSIEPRIANAAAQLIAAIADIELPHGAWPELMKIMVDNTGAEQPENVKRASLLALGYMCESADPQSQALVSSSNNILIAIVQGAQSTETSKAVRLAALNALADSLIFIKNNMEREGERNYLMQVVCEATQAEDIEVQAAAFGCLCKIMSLYYTFMKPYMEQALYALTIATMKSPNDKVASMTVEFWSTICEEEIDIAYELAQFPQSPLQSYNFALSSIKDVVPNLLNLLTRQNEDPEDDDWNVSMSAGACLQLFAQNCGNHILEPVLEFVEQNITADNWRNREAAVMAFGSIMDGPDKVQRTYYVHQALPSILNLMNDQSLQVKETTAWCIGRIADSVAESIDPQQHLPGVVQACLIGLQDHPKVATNCSWTIINLVEQLAEATPSPIYNFYPALVDGLIGAANRIDNEFNARASAFSALTTMVEYATDTVAETSASISTFVMDKLGQTMSVDENQLTLEDAQSLQELQSNILTVLAAVIRKSPSSVEPVADMLMGLFFRLLEKKDSAFIEDDVFYAISALAASLGKGFEKYLETFSPYLLKALNQVDSPVSITAVGFIADISNSLEEDFRRYSDAMMNVLAQMISNPNARRELKPAVLSVFGDIASNIGADFIPYLNDIMALCVAAQNTKPENGTLEALDYQIKVLEAVLDAYVGIVAGLHDKPEALFPYVGTIFQFIAQVAEDPQLYSEDATSRAAVGLIGDIAAMFPDGSIKQFYGQDWVIDYIKRTRSGQLFSQATKDTARWAREQQKRQLSL
notes: Kap95, nuclear transport factor; also called TF; transport factor; source: prepared as previously described (Tetenbaum-Novatt et al., 2012)
For the molecule B1, the binding result is recorded as “binds”.
